The record followed here is paper PMC5840378, “Cytochrome c speeds up caspase cascade activation by blocking 14-3-3ε-dependent Apaf-1 inhibition” (Cell Death & Disease, 2018).

No end group written: not given here.

Data set [1] has as its target T1, cytochrome c (Cc), recombinant (human, UniProt P99999 1-105, heme group; 15N-labelled for the 2D NMR titrations).
T1 construct: Met80 is M81 in P99999); Reduced with sodium ascorbate in the NMR experiments; also called hemeprotein; reduced Cc; source: E. coli BL21 (DE3), purified (ionic chromatography, carboxy-methylcellulose)
Briefly: NMR titration; 1D 19F NMR of the fluorinated 14-3-3ε_(234-255) peptide titrated with Cc or BSA; 25 °C; 600 MHz; 10 mM sodium phosphate pH 6.3. The conditions noted are these: both partners purified.

Data set [2] has as its target T1, cytochrome c (Cc), recombinant. In words: ITC; Auto-ITC200, 25 °C; 2-μL injections of 300 μM Cc into the cell with 20 μM 14-3-3ε species or peptide; 10 mM sodium phosphate pH 7.4. The conditions noted are these: both partners purified. For orientation: ITC needs no label: the signal is the heat of the interaction.
Data set [3] concerns the molecule itself. Briefly: AUC + other: dynamic light scattering; sedimentation velocity, 20 °C, 45,000 r.p.m., 37 μM, 5 mM sodium phosphate pH 6.3; DLS at 0.1 mg/mL, 25 °C, same buffer.
The target in data set [4] is T1, cytochrome c (Cc), recombinant. In words: NMR titration; 50 μM reduced 15N-labelled Cc titrated with unlabeled 14-3-3ε FL (700 MHz) or 14-3-3ε_(234-255) peptide (600 MHz); 1D 1H and 2D [1H,15N] HSQC; 25 °C; 5 mM sodium phosphate pH 6.3, 0.1 M sodium ascorbate; CSP curves fitted with a one-site model. Conditions: both partners purified.

T1 sequence (P99999 whole entry): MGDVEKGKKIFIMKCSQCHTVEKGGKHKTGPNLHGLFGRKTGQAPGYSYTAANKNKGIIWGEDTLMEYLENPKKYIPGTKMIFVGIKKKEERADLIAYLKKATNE

B1: fluorinated 14-3-3ε_(234-255) peptide (Lys244 covalently bound to 5-fluorindole) (peptide, UniProt P62258 234-255, looked up)
peptide: Ac-DMQGDGEEQNK(5‑fluorindole)EALQDVEDENQ
notes: 14-3-3ε, C-terminal tail, residues 234-255; source: acetylated 14-3-3ε_(234-255) peptide conjugated with 5-fluoroindole (formaldehyde, 24 h, 30 °C), dialyzed
Consider B1, for which the binding result in data set [1] is on record as “binds”.

B2: acetylated 14-3-3ε_(234-255) peptide (peptide, UniProt P62258 234-255, looked up)
peptide: Ac-DMQGDGEEQNKEALQDVEDENQ
notes: 14-3-3ε, C-terminal tail, residues 234-255, N-terminally acetylated; also called acetylated peptide
Turning to B2, the binding result in data set [2] is “binds”.

B3: 14-3-3ε FL D21K (natural protein, UniProt P62258 1-255, looked up)
chain: MDDREDLVYQAKLAEQAERYKEMVESMKKVAGMDVELTVEERNLLSVAYKNVIGARRASWRIISSIEQKEENKGGEDKLKMIREYRQMVETELKLICCDILDVLDKHLIPAANTGESKVFYYKMKGDYHRYLAEFATGNDRKEAAENSLVAYKAASDIAMTELPPTHPIRLGLALNFSVFYYEILNSPDRACRLAKAAFDDAIAELDTLSEESYKDSTLIMQLLRDNLTLWTSDMQGDGEEQNKEALQDVEDENQ
notes: 14-3-3ε full length with D21K; source: E. coli BL21 (DE3), purified (Ni Sepharose); mutant obtained from Mutagenex Inc
One may read the stoichiometry N as a count of units in the complex or per binding partner. In the case of B3, the “stoichiometry N” value in data set [3] is 2.

B4: 14-3-3ε FL S59E (natural protein, UniProt P62258 1-255, looked up)
chain: MDDREDLVYQAKLAEQAERYDEMVESMKKVAGMDVELTVEERNLLSVAYKNVIGARRAEWRIISSIEQKEENKGGEDKLKMIREYRQMVETELKLICCDILDVLDKHLIPAANTGESKVFYYKMKGDYHRYLAEFATGNDRKEAAENSLVAYKAASDIAMTELPPTHPIRLGLALNFSVFYYEILNSPDRACRLAKAAFDDAIAELDTLSEESYKDSTLIMQLLRDNLTLWTSDMQGDGEEQNKEALQDVEDENQ
notes: 14-3-3ε full length with S59E; source: E. coli BL21 (DE3), purified (Ni Sepharose); mutant obtained from Mutagenex Inc
Regarding B4, in data set [3], the “stoichiometry N” value was 2.

B5: 14-3-3ε FL S187D (natural protein, UniProt P62258 1-255, looked up)
chain: MDDREDLVYQAKLAEQAERYDEMVESMKKVAGMDVELTVEERNLLSVAYKNVIGARRASWRIISSIEQKEENKGGEDKLKMIREYRQMVETELKLICCDILDVLDKHLIPAANTGESKVFYYKMKGDYHRYLAEFATGNDRKEAAENSLVAYKAASDIAMTELPPTHPIRLGLALNFSVFYYEILNDPDRACRLAKAAFDDAIAELDTLSEESYKDSTLIMQLLRDNLTLWTSDMQGDGEEQNKEALQDVEDENQ
notes: 14-3-3ε full length with S187D; source: E. coli BL21 (DE3), purified (Ni Sepharose); mutant obtained from Mutagenex Inc
Take B5: the “stoichiometry N” value in data set [3] was 2.

B6: 14-3-3ε FL K50E (natural protein, UniProt P62258 1-255, looked up)
chain: MDDREDLVYQAKLAEQAERYDEMVESMKKVAGMDVELTVEERNLLSVAYENVIGARRASWRIISSIEQKEENKGGEDKLKMIREYRQMVETELKLICCDILDVLDKHLIPAANTGESKVFYYKMKGDYHRYLAEFATGNDRKEAAENSLVAYKAASDIAMTELPPTHPIRLGLALNFSVFYYEILNSPDRACRLAKAAFDDAIAELDTLSEESYKDSTLIMQLLRDNLTLWTSDMQGDGEEQNKEALQDVEDENQ
notes: 14-3-3ε full length with K50E; source: E. coli BL21 (DE3), purified (Ni Sepharose); mutant obtained from Mutagenex Inc
Take B6: the “stoichiometry N” value in data set [3] was 2.

B7: 14-3-3ε FL D99K (natural protein, UniProt P62258 1-255, looked up)
chain: MDDREDLVYQAKLAEQAERYDEMVESMKKVAGMDVELTVEERNLLSVAYKNVIGARRASWRIISSIEQKEENKGGEDKLKMIREYRQMVETELKLICCKILDVLDKHLIPAANTGESKVFYYKMKGDYHRYLAEFATGNDRKEAAENSLVAYKAASDIAMTELPPTHPIRLGLALNFSVFYYEILNSPDRACRLAKAAFDDAIAELDTLSEESYKDSTLIMQLLRDNLTLWTSDMQGDGEEQNKEALQDVEDENQ
notes: 14-3-3ε full length with D99K; source: E. coli BL21 (DE3), purified (Ni Sepharose); mutant obtained from Mutagenex Inc
Take B7: the “stoichiometry N” value in data set [3] came out at 2.

B8: 14-3-3ε FL E92K (natural protein, UniProt P62258 1-255, looked up)
chain: MDDREDLVYQAKLAEQAERYDEMVESMKKVAGMDVELTVEERNLLSVAYKNVIGARRASWRIISSIEQKEENKGGEDKLKMIREYRQMVETKLKLICCDILDVLDKHLIPAANTGESKVFYYKMKGDYHRYLAEFATGNDRKEAAENSLVAYKAASDIAMTELPPTHPIRLGLALNFSVFYYEILNSPDRACRLAKAAFDDAIAELDTLSEESYKDSTLIMQLLRDNLTLWTSDMQGDGEEQNKEALQDVEDENQ
notes: 14-3-3ε full length with E92K; source: E. coli BL21 (DE3), purified (Ni Sepharose); mutant obtained from Mutagenex Inc
Take B8: the “stoichiometry N” value in data set [3] turned out to be 2.

B9: 14-3-3ε C-terminal peptide (14-3-3ε_(234-255)) (peptide, UniProt P62258 234-255, looked up)
peptide: DMQGDGEEQNKEALQDVEDENQ
notes: 14-3-3ε, C-terminal tail, residues 234-255; also called non-acetylated peptide; C-terminal tail of 14-3-3ε; source: bought: Genosphere Biotechnologies (France)
By Kd is commonly meant the concentration at which binding is half-saturated. On to B9, for which the values for the Kd in data set [2] and in data set [4] were 16 µM and 49 µM, respectively.
